{"source": "ChEMBL document CHEMBL2074277", "about": "“Expression and localization of organic cation/carnitine transporter OCTN2 in Caco-2 cells” (Am J Physiol Gastrointest Liver Physiol, 2003)", "substrate": "C[N+](C)(C)CC(O)CC(=O)[O-]", "test": "TP_TRANSPORTER: uptake in Caco-2 cells", "assay_type": "functional, cell-based", "data": [{"protein": "Organic cation/carnitine transporter 2 (Homo sapiens) (protein) MRDYDEVTAFLGEWGPFQRLIFFLLSASIIPNGFTGLSSVFLIATPEHRCRVPDAANLSSAWRNHTVPLRLRDGREVPHSCRRYRLATIANFSALGLEPGRDVDLGQLEQESCLDGWEFSQDVYLSTIVTEWNLVCEDDWKAPLTISLFFVGVLLGSFISGQLSDRFGRKNVLFVTMGMQTGFSFLQIFSKNFEMFVVLFVLVGMGQISNYVAAFVLGTEILGKSVRIIFSTLGVCIFYAFGYMVLPLFAYFIRDWRMLLVALTMPGVLCVALWWFIPESPRWLISQGRFEEAEVIIRKAAKANGIVVPSTIFDPSELQDLSSKKQQSHNILDLLRTWNIRMVTIMSIMLWMTISVGYFGLSLDTPNLHGDIFVNCFLSAMVEVPAYVLAWLLLQYLPRRYSMATALFLGGSVLLFMQLVPPDLYYLATVLVMVGKFGVTAAFSMVYVYTAELYPTVVRNMGVGVSSTASRLGSILSPYFVYLGAYDRFLPYILMGSLTILTAILTLFLPESFGTPLPDTIDQMLRVKGMKHRKTPSHTRMLKDGQERPTILKSTAF", "values": [{"measurement": "Km", "value": 14.1, "unit": "µM"}]}]}
